Data published in the DeepSol protein solubility set.

Test: soluble on expression in E. coli; label from the status in PepcDB or PDB records

Sequence | soluble on expression in E. coli
MAMPEKSSDVKPTEECGSFPEIIELNVGGQVYITRYPTLISIPGSRLWEMFSVKNPCSLIQDNKGRFFIDRDGFLFRYVLDYMRDMQVVLPDHFPECGRLHREAEYFKLPELAKMLAPKMNKLNSIGNDSCPIDLEELSPSIDTTFNFSSTNSIHISGPDNPMVLRAAPGSELKKAGFITIGYRGSYTLGRDSQADAKFRRVARIMVCGKISLAKEVFGDTLNESRDPDRPPERYTSRYYLKFTFLEQAFDKLADAGFHMVACNSTGTCTVTHDQTDDRIWTSYTEYVFYRE | soluble
MAPAKSPRAWQRMLSGRRLDLLDPSPLDVEIADIAHGLARVARWNGQTRGDHAFTVAQHCLIVETIFCRMCPGATPDEMQMALLHDAPEYVIGDMISPFKSVVGGGYKTVEKRLEAAVHLRFGLPPHASRELKDRIKKADTVAAFFEATELAGFSTAEAQKFFGLPRGITRDMFDIIPLPSTEAQRLFIARFEAIETLRVTRTGGAV | soluble
AQGLQARFQLLRVLEVPADDAVAKGLEISFGEPVALIERLGLADEEPISVGSGYFPLKRFPDFLEPENIKILQEQQSISQFLQQVYGCDHIRRSTCVSARLVQPQDAKWLQIPLNQPILLAESVNVDQAGNVIEYGVTRLRGDRME | not soluble
MSDSKPRDVQVLPIATNTKVLRARSWSRLRFEIEYALERGTTSNSYVIEGDKTAIIDPPVESFMKIYLEALQQTVNLKKLDYVILGHFSPNRIPTFKALLELAPQITFVCSLPAAGDLRAAFPDDNLNILPMRGKETLDLGKGHVLKFLPIPSPRWPAGLCTYDVQTQILYTDKIFGAHICGDDVFDDNWESFKEDQRYYFNCLMAPHAIHVEAALEKISDLQVRLYAVGHGPLVRTSLIALTQAYADWSKAQKDREISVALLYASAYGNTATIARAIALGLTKGGVAVKSINCEFATPEEIQTNLEQVDGFLIGSPTIGGHAPTPINTALGIVLKVGDNNKLAGVFGSYGWSGEALDMIEGKLRDAGYRFGLDTLKVKFKPDDVTLKFCEEVGTDFAQTLKKAKKVRVPQQAATPVEQAVGRIVGSVCVITAKQGDVSTGMLGSWVSQATFNPPGLTVAIAKERAIESLMYPGGKFALNILSEGNHLEYMKHFRKNFAPGEDRFANFTTTEADNGCTVLADALAYVECSVDQRLECGDHWVVYATVDNGKLLKPDDVTAINHRKTGNHY | soluble
MGSDKIHHHHHHMAHPFLRTIFEVVITLYMLHNLYKVLGDDEMDLEEMSSFFNKRVNEYEEHMMNNVGGANQYYIETAKLIPRGKEINILDLGCGTGLELDEIFKINNTVRVTGIDLAENMLRKIKEKHKDKLDRLTLIVGDYFSCDIGEKVFDAALSVETLHHFNHEQKIKLYKKIVRSLKDNGVYIEADYMAPNQDYEDHCFNENKRIRLELGIKDGFYHYDTPCTVENQIKMLYKSGFKSVEKVFKAENTVILLAKK | not soluble
MGSDKIHHHHHHADSDDENSNFSSGITGMNLSAEVLKHQPMVEKYARENGISEYVNVLLAIIQVESGGTAEDVMQSSESLGLPPNSLDTESSIKQGCKYFASLLSSSKNQGIDDLNVAIQSYNYGGGYVGYVAGKGKKHTFNLAESFAREKSGGKKVTYTNPIAVAKNGGWRWNYGNMFYVELVNQYLTVPQVSGELAQKVMNEALKYQGWKYVYGGSNPNTSFDCSGLTQWCYGKAGISLPRTAQAQYDATQHLPLSQAKAGDLVFFHSTYNAGSYVTHVGIYVGNNQMYHAGDPIGYADLSSSYWQQHLIGAGRVKQ | not soluble
MGSDKIHHHHHHMQLDKIIAQNIVKRAMNIIGCSVNVMDHHGIIIASGNPARLNQLHTGAVLALRQNRMVEVDENLAEKWNFDAHPGINVPIQYLGNNIGVIGISGVPEQVKPYAELVKMTAELIIEQHILLEKESWNRRYKEEFILQLVKGNLSLAEIQQQAAFFSFALDIPRVVIIIKLLHPNADSLQQLVGYLEQPQFEQDVAILSLDQIIILQPFNIFAQFGKQLKKLLPKDYSQQDYKIAIGAQLECPAGEQLHLSYRSALSTLQYGLKHYPRKTLYFFEQYRLPVLLAGIADSWQAEELLKPLKALFSEENALLFKTLQQYFLSNCDLVLTAQKLFIHPNTLRYRLAKIEQITALSFNKIEDRFSLYLSTVLI | not soluble
MFKGDMNKKRAKALQKVKEAITLHGGQTILSTGITGDDARLAKAVCEAGVKLLEPNHPALALARGHKGVSNMHAAEQIRHEITNSQMAEAVHGVRNVVPDDIFITVGIAGGFTETLPVPLSEKEILEIARAGADGLHTHKSDWDDLQDIVNLAHQYGLTVDAYIGHPDDLHTFGIPARTPEEVASVAKRMQDIGVDMIGLMTGMSYEGVAAGDIPQMIKDRLRALVGAVDVPTLAEGGINLANAKAFKDTGVNILVVGTAIDNMVCNAAKEAVTPFIVH | soluble
MGSDKIHHHHHHMTQTQPKFLTIYNTLYKEIQIGKYPSGHALPTEKELCARFDVSRMTLRQAIKLLAEDGIVESTRGKGHFVIPQTNAQHASSMDQFKHPLDQILLARVSMSSINYRVDLESEYTNHLFANHPSAVIAMERYYQKKDNHSKQADAFCFTFIPLNVIDTFKVNTQNEDDMKTFVEQTIYSNAYQSDLKMSITKAPRFKNHSHVFDGDTHCWLIIETLYAQTPYPIMINKWYIPQEISELTLTRIRQSDY | not soluble
MISVFHYHQPKIGNSESEYEDAFSYDVEKGLFAMADGSSESVFSNEWARSLVDTFVAGKYDMKIDDMVETAVGMWRSKLPWNNMKWFVKNKIARGSMATFLGLEVLDGSFRSVAVGDTCLFIITPEGMKSFPVKYPSEFGNTPKLIWTGNPLLRTRRSIKWANYMEGRISESDLLIMATDSLAHWMLSRAKQRPWQILIDHSENEGEFIGSLINSGEMKNDDVTFAIISLK | not soluble
MGSDKIHHHHHHMKCILYKKALPLILLSCLLLGACGNSKNDSVSKEPLSHTSTEKGTWDSAPKVLTPTADGTQTYTCDVASIDASNSGSGYIIVNYHGSNQKVKLQITGPDSVTYTFDLHGGNEVFPLVASSGSYTVTVFENVEGTQYATVLSQVISVSITDEFGPYLYPNQYVNFTADSPAVKEGSSLAYYCSSDTEVVESVYNYIISNFKYDYDKAKNVKSGYLPDVDKVFTENTGICFDYAAVMATMLRTQAIPTRLEVGYAGEEYHAWISTYIKDKGWINGIIEFDGTSWNMLDPTFASTSDSPKKFIAQKSDYITKYVY | not soluble
MGSDKIHHHHHHMSPLEMALLVHRGEFHLRELEPELPLEKFLKNADPKKTRKFLEKCGKEELERQKELIRKHNVKLVSFWEDDYPQHLREIRYPPAVLFVRGDAELLKEKCVGVVGTRRPTSYGVNVTKRFVKLLSEYFVIVSGMAFGIDSVAHKEALSSGGKTVAVLGTGVDVVYPRSNERLFHEIVKNGCVVSEYPMGTRARKHHFPARNRIIAGLSDAIIVTEAPIKSGALITVKFALESGRDVFAVPGDIDRKTSEGTNYLIKSGAYPLTDEEDLETHFGIRRIASPSLDDDKKKIYDLLRSSPKTVDELVEELGWSVSEVLRVISEMELMGMIWFDGGAYRLLG | not soluble
MYYQQALMRSTVKSSVSLGGIVKYSEQFSSNDAIMSGCLPSNPWITDDTQFWDLNAKLVEIPTKMRVERWAFNFSELIRDPKGRQSFQYFLKKEFSGENLGFWEACEDLKYGDQSKVKEKAEEIYKLFLAPGARRWINIDGKTMDITVKGLKHPHRYVLDAAQTHIYMLMKKDSYARYLKSPIYKDMQAKAIDPQETTKKSSTLPFMRRHLRSSPSPVILRQLEEEAKAREAANTVDITQPGQHMAPSPHLTVYTGTCMPPSPSSPFSSSCRSPRKPFASPSRFIRRPTICPSPILVVLDSSSGLEQKGECSWSGANPGPSVTDSSEASRDTSWTRSRPRAPLKARMALSFSRFLRRGCLASPVFARVSPKCPAVSHGRVQPLGDVGQQLPRLKSKRVANFFQIKMDVPTGSGTCLMDSEDAGTGESGDRATEKEVICPWESL | not soluble
MTTIVGVRAREVLDSRGFPTVEAEVELEGGARGRAMVPSGASTGTHEALELRDGGKRYLGKGVRRAVENVNERIAPELVGMDALDQEGVDRAMLELDGTPNKANLGANAVLAVSLAVARAAAEALGLPLYRYLGGVQGVTLPVPLMNVINGGKHADNRVDFQEFMLVPAGAGSFAEALRIGAEVFHTLKAVLKEKGYSTNVGDEGGFAPDLRSNEEAVELLLLAIERAGYTPGQEVSLALDPATSELYRDGKYHLEGEGKVLSSEEMVAFWEAWVEKYPIRSIEDGLAEDDWEGWRLLTERLGGKVQLVGDDLFVTNPERLRAGIERGVANAILVKVNQIGTLSETLEAIRLAQRSGYRAVISHRSGETEDSFIADLAVAVNAGQIKTGSLSRSDRLAKYNQLLRIEEELGRAARFLGYAAF | soluble
MAFTPFPPRQPTASARLPLTLMTLDDWALATITGADSEKYMQGQVTADVSQMAEDQHLLAAHCDAKGKMWSNLRLFRDGDGFAWIERRSVREPQLTELKKYAVFSKVTIAPDDERVLLGVAGFQARAALANLFSELPSKEKQVVKEGATTLLWFEHPAERFLIVTDEATANMLTDKLRGEAELNNSQQWLALNIEAGFPVIDAANSGQFIPQATNLQALGGISFKKGCYTGQEMVARAKFRGANKRALWLLAGSASRLPEAGEDLELKMGENWRRTGTVLAAVKLEDGQVVVQVVMNNDMEPDSIFRVRDDANTLHIEPLPYSLEELEHHHHHH | not soluble
MTRLTVFKPRSLVSILMFTTVWAVGSASASTLDLEAQRAQYDKAQRWLDEKNVAQYQRIRKQIDSYPLTPYLDYRAFLIDLGSKPPIAVRNFIDSHKEYPFSARIAAPYLDALARSKKWSALLQFQTQLPNGETYQCHYYNAKLQTGKRNEAFEGAKKLWLNGASIADACDPLFAEWDRVGGLSDDWVLKRALLAFEGRNRNLIVYLQKKLDGKKSQAKAQGMLELFDKPERVLAYSRKASQDPINQKLAELALQKWARSEPQEAQAVFNDVAKAQGWNQEQKGRVARFIAIRLMDTEEAAIAKWRDEVTRTSQDVRLIEARIRLALRENDWRGLSQWIAVLPEQERKTLRWQYWQGRSEIALGKKKEGTERLKALLGQRSFYSVAAAKILQQSVNYPTSTVTLDMKQIKAHKKALARIDELIALDKVPAAKSEWRWLLDRVSQKEKEMLAAYAADSGWYQMTIAATISASLWDNNQLRFPVVHQNLFTLHGRKNGVDPITLMSLARQESALNPDAQSPVGARGLMQIMPDTARYTARKYQLSYSNPDELYQVGKNIEIGSRYLSSLLERYDQNRILAFAAYNAGPSRVDSWLKRSQGKLDAYGFIEAIPFAETRGYVQNILMFETYYRDLMGVQGRFLNEHELNTKY | soluble
MGSDKIHHHHHHMKFIFDIDGTICFKGNAVTKGIIHALDVCQSKGHEVIFASARPIRDLLPVLPNHMHHYSMIGGNGAFIAKGKDTIEVITFDPGTVSAIHSIIKKHSLSYLIDSHWNYSYTGSENHPIYKNIDPNQLANNVHIDEIKEVVKVVLFPDHVQKEYIMNMLTELPIRIYEHDNEGIVDISPENIDKWVGLQRLGIKEREFVVFGNDSNDLSMFLHAKESICVGSHEVLLGYASTCLKIDEQSIVNKIIELSELYA | not soluble
MAYFALGLATATKNRDGKIIEAFFPTPILAPSDALVAALAPIAGYQEGNQALDITAAQSAQLAAVFAAHQQAASAAFADKAANAKQPLVLVILASDDKPQSVAEGYLKLQLISHRLVKPHGTVLDGIFGLLHNIAWTNEGPIDLPELAERQIEARLAGRVLTVDCVDKFPKMVDYVVPAGIRIADTSRVRLGAHVGEGTTVMHEGFINFNAGTTGVSMVEGRISAGVVVGNGSDIGGGASIMGTLSGGGKVVVSIGENSLLGANAGLGFPLGDRCTVESGLYVTAGTKVRTLDKDGNQVDIVKARDLAGVSDLLFRRNSLTGQIECLANKSAVELNSELHKNN | not soluble
